Experimental data: patent US20240010735A1 (EISAI R AND D MANAGEMENT, published 2024)

T1: mouse EphA1 extracellular region-Fc-His protein (mouse; human, UniProt Q60750 27-548)
T1 construct: extracellular domain; not shown: Fc region of human IgG1; histidine tag
T1 sequence (looked up): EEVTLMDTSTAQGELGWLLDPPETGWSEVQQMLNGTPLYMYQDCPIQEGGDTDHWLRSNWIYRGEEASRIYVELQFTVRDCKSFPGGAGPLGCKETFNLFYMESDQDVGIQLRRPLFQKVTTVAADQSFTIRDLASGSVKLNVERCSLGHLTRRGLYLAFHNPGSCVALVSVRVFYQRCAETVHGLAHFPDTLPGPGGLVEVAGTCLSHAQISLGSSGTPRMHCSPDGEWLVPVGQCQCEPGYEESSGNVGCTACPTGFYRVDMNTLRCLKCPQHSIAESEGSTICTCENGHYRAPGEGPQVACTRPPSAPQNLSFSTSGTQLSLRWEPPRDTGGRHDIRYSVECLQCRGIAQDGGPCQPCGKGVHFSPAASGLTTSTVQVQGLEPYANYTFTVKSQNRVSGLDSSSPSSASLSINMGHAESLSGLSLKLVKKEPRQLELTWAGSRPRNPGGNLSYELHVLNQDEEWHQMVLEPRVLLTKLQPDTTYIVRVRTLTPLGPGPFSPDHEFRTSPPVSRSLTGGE

T2: mouse EphB6 extracellular region-Fc-His protein (mouse; human, UniProt O08644 33-591)
T2 construct: extracellular domain; not shown: Fc region of human IgG1; histidine tag
T2 sequence (looked up): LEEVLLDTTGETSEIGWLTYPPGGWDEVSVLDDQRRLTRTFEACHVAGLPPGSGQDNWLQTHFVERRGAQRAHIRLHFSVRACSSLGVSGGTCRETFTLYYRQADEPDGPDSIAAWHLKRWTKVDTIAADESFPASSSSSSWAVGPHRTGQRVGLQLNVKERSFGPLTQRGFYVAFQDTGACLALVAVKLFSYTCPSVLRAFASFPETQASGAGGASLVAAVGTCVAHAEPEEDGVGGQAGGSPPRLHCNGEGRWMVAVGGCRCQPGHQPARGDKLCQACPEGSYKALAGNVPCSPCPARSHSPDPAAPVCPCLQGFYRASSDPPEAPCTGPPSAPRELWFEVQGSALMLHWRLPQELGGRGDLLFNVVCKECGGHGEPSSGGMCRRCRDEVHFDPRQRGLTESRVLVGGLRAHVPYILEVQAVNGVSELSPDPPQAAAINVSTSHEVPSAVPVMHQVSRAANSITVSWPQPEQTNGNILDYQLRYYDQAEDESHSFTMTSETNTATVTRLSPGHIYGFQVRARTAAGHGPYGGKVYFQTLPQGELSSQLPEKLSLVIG


Tests used:
[1] = target: T1, mouse EphA1 extracellular region-Fc-His …; assay: ELISA: Fc-His proteins (1 nM) captured on anti-6-His antibody, antibody A 10 µg/mL with human IgG 100 µg/mL, HRP anti-mouse IgG, OD450 as % of mouse EphA4-Fc-His
[2] = target: T3, mouse EphA2 extracellular region-Fc-His protein (mouse, UniProt Q03145 26-538); assay: as above
T3 construct: extracellular domain; Cloned into a pcDNA 3.1 vector separately from the other mouse Eph receptors; not shown: Fc; histidine tag

[3] = target: T2, mouse EphB6 extracellular region-Fc-His …; assay: as above
[4] = target: T4, human EphA4 extracellular region-SEAP-His protein (human, UniProt P54764 20-547); assay: SPR (Biacore T200): human EphA4 extracellular region-SEAP-His captured on anti-His antibody, antibody B 1.6-100 nM as analyte, 1:1 fit
T4 construct: also called human EphA4 extracellular region-SEAP-His 10; not shown: secretory alkaline phosphatase (SEAP); histidine tag
Description: The binding affinity of antibody B obtained in Example 1 against human EphA4 was determined by surface plasmon resonance (SPR method) employing Biacore T200 (GE Healthcare). First, anti-His antibodies (GE Healthcare, 28-9950-56) were fixed to a sensor chip CMS. Fixation was carried out by amine coupling method employing N-hydroxysuccinimide (NHS) and N-ethyl-N′-(3-dimethylaminopropyl) carbodiimide hydrochloride salt (EDC), and ethanolamine was employed for blocking (the sensor chip and reagents for fixation are all from GE Healthcare). This was diluted with the fixation buffer (10 mM sodium acetate, pH 4.5) to 3.5 μg/mL, and fixed onto the sensor chip according to the protocol accompanying Biacore T200. Human EphA4 extracellular region-SEAP-His 10 was diluted with the running buffer HBS-EP (GE Healthcare, BR-1001-88), and the solution was sent and captured onto the flow cell for 120 seconds (about 10 RU of captured amount). […] Fitting analysis by 1:1 binding model employing the software accompanying the system, BIA evaluation software, was carried out against the binding reaction curve obtained, and the affinity (KD=kd/ka) against human EphA4 was calculated.

T4 sequence (P54764 20-547): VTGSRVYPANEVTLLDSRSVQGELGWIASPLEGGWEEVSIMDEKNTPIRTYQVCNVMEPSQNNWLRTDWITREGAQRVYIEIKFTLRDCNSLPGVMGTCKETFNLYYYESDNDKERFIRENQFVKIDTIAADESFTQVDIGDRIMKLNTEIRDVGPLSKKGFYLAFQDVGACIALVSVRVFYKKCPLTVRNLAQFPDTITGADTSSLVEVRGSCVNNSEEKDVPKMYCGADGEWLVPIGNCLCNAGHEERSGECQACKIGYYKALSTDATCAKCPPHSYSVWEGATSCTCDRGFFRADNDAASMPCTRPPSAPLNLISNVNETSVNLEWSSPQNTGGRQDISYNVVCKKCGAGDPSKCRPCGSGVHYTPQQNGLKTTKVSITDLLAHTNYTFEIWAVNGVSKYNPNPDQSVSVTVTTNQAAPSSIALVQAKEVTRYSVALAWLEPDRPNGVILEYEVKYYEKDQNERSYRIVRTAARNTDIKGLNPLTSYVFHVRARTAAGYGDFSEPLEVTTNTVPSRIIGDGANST
T3 sequence (Q03145 26-538): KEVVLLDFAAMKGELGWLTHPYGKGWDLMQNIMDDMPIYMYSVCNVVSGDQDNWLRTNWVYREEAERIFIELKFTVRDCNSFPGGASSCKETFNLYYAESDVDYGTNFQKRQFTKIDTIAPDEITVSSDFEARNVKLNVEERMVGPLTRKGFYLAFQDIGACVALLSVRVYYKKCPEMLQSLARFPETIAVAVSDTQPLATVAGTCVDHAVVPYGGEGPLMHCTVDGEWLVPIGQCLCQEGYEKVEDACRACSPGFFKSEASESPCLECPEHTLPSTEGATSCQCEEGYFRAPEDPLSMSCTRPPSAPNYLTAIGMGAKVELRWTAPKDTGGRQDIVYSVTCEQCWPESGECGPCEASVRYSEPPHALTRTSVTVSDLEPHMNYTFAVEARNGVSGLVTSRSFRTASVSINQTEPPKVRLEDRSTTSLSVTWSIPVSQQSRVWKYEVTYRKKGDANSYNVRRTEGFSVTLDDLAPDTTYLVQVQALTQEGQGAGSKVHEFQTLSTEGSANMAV

Row | Binder | binding result [1] | binding result [2] | binding result [3] | koff [4] [s⁻¹] | kon [4] [M⁻¹ s⁻¹]
1 | mouse anti-EphA4 monoclonal antibody (antibody A) (antibody, mouse IgG1, kappa, V domains shown, purified from hybridoma supernatant) VH: QVQLKQSGPSLVQPSQSLSITCTVSGFSLTRYGVHWVRQSPGKGLEWLGVIWRGGSTDYNAAFMSRLSITKDNSKSQVFFKMNSLQADDTAIYYCAKESLFGVYYDYGYYSMDYWGQGTSVTVSS VL: DIQMTQSPSSLSASLGERVSLTCRASQEISGYLSWLQQKPDGTIKRLIYAASTLDSGVPKRFSGSRSGSDYSLTISSLESEDFADYYCLQYASYPLTFGAGTKLELKR | no binding (tested: 10 µg/mL) | no binding (tested: 10 µg/mL) | no binding (tested: 10 µg/mL) | – | –
2 | humanized anti-EphA4 monoclonal antibody (antibody B) (antibody, human IgG2, V domains shown, expressed in Expi293F cells; also called humanized antibody of antibody A; HK2-42 / L1-8) VH: QVQLVESGGGVVQPGRSLRLSCAVSGFSLTRFGVHWVRQAPGKGLEWVAVIWRGGSTDYNAAFMSRLTISKDNSKNTVYLQMNSLRAEDTAVYYCAKESLFGVYYDYGYYSMDYWGQGTTVTVSS VL: DIQMTQSPSSLSASVGDRVTITCRASQEISGYLSWLQQKPGKAPKRLIYAASTLDSGVPSRFSGSRSGTEYTLTISSLQPEDFATYYCLQYASYPLTFGGGTKVEIKR | – | – | – | 0.000494 | 370000
